Substitutions are numbered along the chain they refer to.
B1: CR6261 germline variant sCDR H2/sCDR H3, soluble IgG (antibody, V domains shown)
VH: QVQLVQSGAEVKKPGSSVKVSCKASGGTFSSYAISWVRQAPGQGLEWMGGIIPIFGTTKYAPKFQGRVTITADESTSTAYMELSSLRSEDTAVYYCAKHMGYQVRETMDVWGKGTTVTVSS
VL: QSVLTQPPSVSAAPGQKVTISCSGSSSNIGNNYVSWYQQLPGTAPKLLIYDNNKRPSGIPDRFSGSKSGTSATLGITGLQTGDEADYYCGTWDSSLSAYVVFGGGTKLTVL
B2: CR6261 germline variant sCDR H1/sCDR H2/sFR3, soluble IgG (antibody, V domains shown)
VH: B1 VH with T28P, S30R, E74D, S75F, T76A, S77G, A79V, V104L
VL: B1 VL
B3: CR6261 germline variant sCDR H3, soluble IgG (antibody, V domains shown)
VH: B1 VH with T58A, K59N, P62Q
VL: B1 VL
B4: CR6261 germline variant sCDR H1/sCDR H2, soluble IgG (antibody, V domains shown)
VH: B1 VH with T28P, S30R, V104L
VL: B1 VL
B5: CR6261 germline variant sCDR H1, soluble IgG (antibody, V domains shown)
VH: B1 VH with T28P, S30R, T58A, K59N, P62Q, V104L
VL: B1 VL
B6: CR6261 germline variant sFR3/sCDR H3, soluble IgG (antibody, V domains shown)
VH: B1 VH with T58A, K59N, P62Q, E74D, S75F, T76A, S77G, A79V
VL: B1 VL
B7: CR6261 germline variant sCDR H2, soluble IgG (antibody, V domains shown)
VH: B1 VH with V104L
VL: B1 VL
B8: CR6261 germline variant sCDR H1/sFR3, soluble IgG (antibody, V domains shown)
VH: QVQLVQSGAEVKKPGSSVKVSCKASGGPFRSYAISWVRQAPGQGLEWMGGIIPIFGTANYAQKFQGRVTITADDFAGTVYMELSSLRSEDTAVYYCAKHMGYQLRETMDVWGKGTTVTVSS
VL: B1 VL

Target: H1 A/New Caledonia/20/1999 haemagglutinin, wild-type trimeric protein (Influenza A virus A/New …, UniProt Q6WG00, strain)
Assay: ELISA

Row | Binder | ELISA endpoint dilution titre | binding result
1 | B1 | 0.15 µg/mL | –
2 | B2 | 0.00133 µg/mL | –
3 | B3 | > 100 µg/mL | no binding (tested: >100 µg ml^-1)
4 | B4 | 0.15 µg/mL | –
5 | B5 | 0.15 µg/mL | –
6 | B6 | > 100 µg/mL | no binding (tested: >100 µg ml^-1)
7 | B7 | > 100 µg/mL | no binding (tested: >100 µg ml^-1)
8 | B8 | 0.00133 µg/mL | –

Source: publication PMC7095019 (Nature, 2012)
